From the supplement of paper PMC6757056
± gives the standard deviation of the averaged measurements.

B1: library; a variant is named by its letters at N, in order (parent)
chain: GCUGUCACCGGUGUAUUACCCUAGUGGUCGACCGGUCUGAUGAGUCUNNNNNNAGACGAAACAGC

Experiments:
hypoxanthine [1] = variants of: B1; assay: normalized RNA/DNA level with ligand (relative to sTRSVctl = 100) (log10 (% of sTRSVctl)); ligand: hypoxanthine (xanthine aptamer); higher = less ribozyme self-cleavage, higher mRNA level; details: ligand concentration (+) RNA-Seq: 5 mM, HEK293T, reporter: mCherry (pCS4076), ligand present: yes
In short: (§1)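 RNA level was computed as RNA reads over DNA reads divided by a spiked-in non-cleaving sequence or by the top sequences, then scaled and log-transformed. Scaling was ×100 with log10, the top group was 25 sequences, and the threshold was ≥100 DNA reads. The reads came from HEK293T cells transfected at 4 µg per 6-well well with ribozyme switch library plasmids (mCherry, or eGFP in some ligand experiments). Total RNA was extracted with EDTA 72 h after transfection, with any ligand added 1 h before it.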

hypoxanthine [2] = variants of: B1; assay: normalized RNA/DNA level without ligand (relative to sTRSVctl = 100) (log10 (% of sTRSVctl)); ligand: hypoxanthine (xanthine aptamer); higher = less ribozyme self-cleavage, higher mRNA level; details: HEK293T, reporter: mCherry (pCS4076), ligand present: no
In short: as §1

Variant	normalized RNA/DNA level with ligand (log10) (hypoxanthine [1])	normalized RNA/DNA level without ligand (log10) (hypoxanthine [2])
GCUACA	1.95 ± 0.02	1.85 ± 0.025
GCUACU	1.95 ± 0.059	1.89 ± 0.026
UCUUUG	1.95 ± 0.033	1.73 ± 0.043
UCUUUC	2.01 ± 0.052	1.99 ± 0.068
UCUUUU	1.95 ± 0.086	1.947 ± 0.0056
CCUUGA	1.97 ± 0.09	1.86 ± 0.026
CCUUGU	1.93 ± 0.15	1.88 ± 0.041
AGAACA	1.91 ± 0.044	1.799 ± 0.0065
UCUACC	1.96 ± 0.029	1.913 ± 0.0037
UCUACG	1.9 ± 0.07	1.733 ± 0.011
UCUACA	1.94 ± 0.057	1.846 ± 0.017
UCUACU	1.97 ± 0.067	1.917 ± 0.014
GCGUCU	1.98 ± 0.085	1.772 ± 0.0055
GCGUCA	1.96 ± 0.023	1.68 ± 0.069
GCGUCC	1.93 ± 0.029	1.59 ± 0.039
GCGUCG	1.89 ± 0.037	1.53 ± 0.041
CGAAAG	1.94 ± 0.04	1.839 ± 0.0055
GCUCAC	1.94 ± 0.08	1.84 ± 0.053
GCUCAG	1.86 ± 0.019	1.31 ± 0.057
GCUCAU	1.95 ± 0.026	1.801 ± 0.018
GCUGUC	1.913 ± 0.0099	1.84 ± 0.013
GCUGUU	1.99 ± 0.05	1.98 ± 0.058
GCUGUA	1.9622 ± 0.0015	1.901 ± 0.014
GCUUAU	1.98 ± 0.053	1.81 ± 0.019

Variant	normalized RNA/DNA level with ligand (log10) (hypoxanthine [1])	normalized RNA/DNA level without ligand (log10) (hypoxanthine [2])
GCUUAC	1.918 ± 0.0079	1.7 ± 0.11
CCUUCC	1.99 ± 0.033	1.963 ± 0.016
CCUUCU	1.98 ± 0.08	1.95 ± 0.048
CCUUCG	1.88 ± 0.035	1.876 ± 0.0072
CCUUCA	1.97 ± 0.074	1.91 ± 0.04
UGAAAA	1.921 ± 0.0047	1.836 ± 0.015
UGAAAG	1.862 ± 0.017	1.72 ± 0.039
UGAAAU	1.907 ± 0.005	1.76 ± 0.005
CCUGCU	2.02 ± 0.049	1.98 ± 0.08
CCUGCA	2.011 ± 0.0089	1.9 ± 0.041
CCUGCC	2.04 ± 0.026	2.01 ± 0.023
ACGUUC	1.94 ± 0.039	1.79 ± 0.024
ACGUUA	1.867 ± 0.015	1.62 ± 0.095
ACGUUU	1.84 ± 0.022	1.53 ± 0.035
UCUCGG	1.92 ± 0.032	1.7302 ± 0.00058
UCUCGA	1.93 ± 0.057	1.832 ± 0.013
UCUCGU	1.96 ± 0.053	1.83 ± 0.045
UCUCGC	1.99 ± 0.022	1.757 ± 0.0053
ACUCAG	1.89 ± 0.04	1.529 ± 0.0011
ACUCAC	1.994 ± 0.0082	1.97 ± 0.013
ACUCAA	1.92 ± 0.073	1.748 ± 0.0042
UCUGAG	1.927 ± 0.0088	1.58 ± 0.035
UCUGAU	1.94 ± 0.066	1.77 ± 0.096
UCUGAC	1.99 ± 0.031	1.8115 ± 0.00067

Variant	normalized RNA/DNA level with ligand (log10) (hypoxanthine [1])	normalized RNA/DNA level without ligand (log10) (hypoxanthine [2])
ACUUGU	1.91 ± 0.086	1.77 ± 0.11
ACUUGA	1.935 ± 0.017	1.72 ± 0.027
ACUUGG	1.88 ± 0.029	1.38 ± 0.068
ACUUGC	1.9727 ± 0.00052	1.822 ± 0.0021
GCUUUU	1.96 ± 0.011	1.831 ± 0.01
GCUUCU	1.996 ± 0.0049	1.94 ± 0.058
GCUUCC	1.963 ± 0.0026	1.833 ± 0.012
GCUUCA	1.966 ± 0.0076	1.898 ± 0.011
UCUCCA	1.93 ± 0.069	1.77 ± 0.019
UCUCCC	1.98 ± 0.14	1.77 ± 0.022
UCUCCG	1.85 ± 0.036	1.43 ± 0.1
UCUCCU	1.99 ± 0.059	1.87 ± 0.028
CCUACC	1.937 ± 0.0065	1.86 ± 0.049
CCUACG	1.94 ± 0.073	1.9 ± 0.041
CCUACU	1.98 ± 0.13	1.96 ± 0.021
UCGUAC	1.94 ± 0.055	1.77 ± 0.031
UCGUAU	1.92 ± 0.045	1.61 ± 0.024
UCGUAA	1.87 ± 0.04	1.53 ± 0.066
UCUGUU	1.98 ± 0.035	1.88 ± 0.034
UCUGUA	1.95 ± 0.024	1.8296 ± 0.0016
UCUGUC	1.96 ± 0.0083	1.956 ± 0.011
GGAACU	1.93 ± 0.031	1.9403 ± 0.00023
GGAACC	1.957 ± 0.0033	1.86 ± 0.021
GGAACA	1.942 ± 0.0069	1.764 ± 0.0065

Variant	normalized RNA/DNA level with ligand (log10) (hypoxanthine [1])	normalized RNA/DNA level without ligand (log10) (hypoxanthine [2])
CCUCUU	2.011 ± 0.018	1.9823 ± 0.00045
CCUCUA	1.98 ± 0.05	1.926 ± 0.015
CCUCUG	1.96 ± 0.038	1.98 ± 0.035
AGAAAG	1.82 ± 0.039	1.41 ± 0.029
GCUCCG	1.88 ± 0.12	1.38 ± 0.075
GCUCCU	2.027 ± 0.006	1.981 ± 0.015
GCUCCA	1.936 ± 0.018	1.81 ± 0.025
GCUCCC	1.93 ± 0.043	1.84 ± 0.02
CCUCAC	1.99 ± 0.027	2.07 ± 0.14
CCUCAA	1.929 ± 0.0046	1.84 ± 0.025
CCUCAU	1.97 ± 0.078	1.87 ± 0.02
ACUUCU	1.91 ± 0.12	1.889 ± 0.0063
ACUUCA	1.95 ± 0.025	1.922 ± 0.013
ACUUCC	1.928 ± 0.015	1.923 ± 0.0089
CCGUAU	1.91 ± 0.033	1.749 ± 0.0044
CCGUAA	1.95 ± 0.098	1.67 ± 0.1
CCGUAG	1.82 ± 0.024	1.35 ± 0.099
CCGUAC	1.92 ± 0.047	1.66 ± 0.037
ACUGCC	1.9853 ± 0.0019	1.89 ± 0.065
ACUGCU	1.91 ± 0.033	1.86 ± 0.037
CCUAUU	1.95 ± 0.063	1.9 ± 0.039
CCUAUG	1.92 ± 0.13	1.86 ± 0.083
CCUAUC	2.03 ± 0.028	2.04 ± 0.03
GCUAAA	1.95 ± 0.043	1.77 ± 0.023

Variant	normalized RNA/DNA level with ligand (log10) (hypoxanthine [1])	normalized RNA/DNA level without ligand (log10) (hypoxanthine [2])
ACUCGC	1.99 ± 0.041	1.93 ± 0.032
ACUCGU	1.95 ± 0.033	1.89 ± 0.025
ACGUGC	1.81 ± 0.023	1.515 ± 0.0062
ACUUAC	1.93 ± 0.046	1.84 ± 0.052
ACUUAU	1.9 ± 0.029	1.729 ± 0.014
GCGUUU	1.965 ± 0.002	1.74 ± 0.11
GCGUUC	1.93 ± 0.059	1.58 ± 0.11
GCGUGC	1.949 ± 0.016	1.619 ± 0.006
GGAAAC	1.939 ± 0.018	1.84 ± 0.014
GGAAAU	1.9 ± 0.071	1.77 ± 0.053
ACUUUC	1.98 ± 0.046	1.95 ± 0.044
ACUUUA	1.903 ± 0.015	1.82 ± 0.067
ACUUUU	1.92 ± 0.044	1.868 ± 0.012
ACUUUG	1.91 ± 0.043	1.57 ± 0.021
UGAACG	1.91 ± 0.034	1.823 ± 0.0083
UGAACC	1.9742 ± 0.00065	1.92 ± 0.057
CCUGGC	2.01 ± 0.037	1.924 ± 0.00087
CCUGGG	1.94 ± 0.027	1.508 ± 0.014
CCUGGU	1.945 ± 0.014	1.88 ± 0.0076
CCUGGA	1.996 ± 0.0047	1.88 ± 0.02
